Measurements: patent US7700107B2, “Synthetic immunogenic but non-amyloidogenic peptides homologous to amyloid β for induction of an immune response to amyloid β and amyloid deposits” (New York University, priority 2000, dated 2010)

Legend:
[1] = Thioflavin T fluorometric assay of amyloid fibril formation in vitro; type: physicochemical; conditions: incubation at 37° C., up to at least 15 days
Description: Studies of amyloid fibril formation in vitro can be performed using published protocols from the laboratory of the present inventors (Castaño et al., 1995; Wisniewski et al., 1991; Wisniewski et al., 1993 and Wisniewski et al., 1994). […] In vitro fibrillogenesis was evaluated by a fluorometric assay based on the fluorescence emission by thioflavine T, as previously described by the laboratory of the present inventors (Soto et al., 1998 and Jameson et al., 1998). Thioflavine T binds specifically to amyloid and this binding procedures a shift in its emission spectrum and a fluorescent enhancement proportional to the amount of amyloid formed (LeVine et al. 1993).
(§1) The experiments were performed as described in Example 1.

[2] = Secondary structure by circular dichroism (CD); type: physicochemical
Description: Secondary structure (α-helix, β-sheet, and random coil) of the peptides was evaluated by circular dichroism (CD) as described previously (Soto et al., 1998 and Soto et al., 1996). Results are expressed as molar ellipticity in units of deg cm^2 dmol^−1, and the data was analyzed by the Lincomb and CCA algorithms (Perczel et al., 1992) to obtain the percentages of different types of secondary structure.
The experimental procedure for circular dichroism is performed according to Golabek et al., (1996) and Soto et al. (1996 and 1998) as follows: CD spectra of solutions containing synthetic peptides (1-5 μM in 300 μl of 10 mM sodium phosphate, pH 7.2) is recorded in a Jasco J-720 spectropolarimeter at 25° C. using a 0.1 cm path-length cell with double distilled, deionized water and TFE (spectroscopy grade) being used as solvents. Calibration of the instrument is performed with an aqueous solution of d-(+)-10-camphorsulfonic acid. Spectra is recorded at 1 nm intervals over the wavelength range 180 to 260 nm and buffer spectra obtained under identical conditions is subtracted.

[3] = test system: human neuroblastoma cell line (SK—N—SH); experiment: Neurotoxicity, MTT assay; type: cell-based; conditions: for Toxicity to SK—N—SH cells (MTT): 2 and 6 days, vs vehicle; for Aggregates visible under the microscope in culture wells: during the incubation period, 10-100 μM
Description: Briefly, cells were plated at 10,000 cells/100 μl culture medium per well in flat bottom, 96 well microtiter plates. The cells were allowed to attach to the plate overnight in an incubator (37° C., 5.0% CO2), and then 10 μl of freshly prepared peptide solution (in nanopure H2O) was added. […] Subsequent steps were as described in the assay protocol.
Data Analysis: The cell culture data was analyzed by one-way ANOVA, followed by a Dunnett's test for post hoc analysis (GraphPad Prism 3.0). An unbiased stereological image analysis system (Bioquant, R&M Biometrics Inc., Nashville, Tenn.) was used to determine the amyloid burden in 6E10 stained brain sections. The data for the amyloid burden and the levels of soluble Aβ within the brain were analyzed by a Student's t-test, two-tailed.
as §1
Data Analysis: The cell culture data was analyzed by one-way ANOVA, followed by a Newman Keuls' test for post hoc analysis (GraphPad Prism 3.0).

[4] = Solubility of freshly prepared peptide solution (in nanopure H2O); type: physicochemical; conditions: at 100 μM

| Substance | Fibril formation (thioflavin T) ([1]; Example 2, FIG. 5) | alpha (secondary structure by CD) ([2]; Time 0 hr) | beta-sheet (secondary structure by CD) ([2]; Time 0 hr) | random (secondary structure by CD) ([2]; Time 0 hr) | alpha (secondary structure by CD) ([2]; Time 24 hr) | beta-sheet (secondary structure by CD) ([2]; Time 24 hr) | random (secondary structure by CD) ([2]; Time 24 hr) | alpha (secondary structure by CD) ([2]; Time 96 hr) | beta-sheet (secondary structure by CD) ([2]; Time 96 hr) | random (secondary structure by CD) ([2]; Time 96 hr) | Fibril formation (thioflavin T) ([1]; Example 1, FIG. 1) | Toxicity to SK—N—SH cells (MTT) ([3]; Example 1, FIGS. 2A and 2B) | Toxicity to SK—N—SH cells (MTT) ([3]; Example 2, FIGS. 6A and 6B) | Solubility [4] | Aggregates visible under the microscope in culture wells ([3]; Example 1) | Aggregates visible under the microscope in culture wells ([3]; Example 2) |
| --- | --- | --- | --- | --- | --- | --- | --- | --- | --- | --- | --- | --- | --- | --- | --- | --- |
| Aβ1-30-NH2(DD18,19): modified Aβ1-30, amidated, Asp at positions 18 and 19 (SEQ ID NO:13) | did not form fibrils |  |  |  |  |  |  |  |  |  |  |  |  |  |  |  |
| Aβ1-30-NH2(EE18,19): modified Aβ1-30, amidated, Glu at positions 18 and 19 (SEQ ID NO:12) | did not form fibrils |  |  |  |  |  |  |  |  |  |  |  |  |  |  |  |
| Aβ1-30-NH2: first thirty residues of Aβ1-42 (SEQ ID NO:1), amidated at the C-terminus; control peptide | gradually formed fibrils over time | 5% | 37% | 58% | 8% | 36% | 56% | 7% | 49% | 44% | gradually formed fibrils over time |  |  |  |  |  |
| Aβ1-40: amyloid β peptide, sequence 1-40; control peptide | gradually formed fibrils over time |  |  |  |  |  |  |  |  |  |  | toxic | toxic |  |  |  |
| Aβ1-42: amyloid β peptide, sequence 1-42; control peptide |  | 9% | 36% | 55% | 9% | 40% | 51% | 5% | 55% | 40% |  | toxic | toxic | only partially soluble | aggregates were visible | aggregates were visible |
